Experimental findings from paper PMC4227788, “Architecture and ssDNA interaction of the Timeless-Tipin-RPA complex” (Nucleic Acids Research, 2014) are described below.

The target of series [1] is T1, RPA70/32/14 (RPA70ABC/32D-WH/14) (mouse, UniProt Q8VEE4;Q99KL9;Q9CQ71 190-623;43-270;1-121). Nature of the series: SEC; excess DNA 260/280 = 1.57 ± 0.05; substoichiometric 1.32 ± 0.03; 20 mM Hepes pH 7.5, 125 mM NaCl, 2 mM DTT, 0.01 mM zinc acetate (Buffer A); EMSA 15 min RT + 15 min 4 C; FA 15 min 30 C, 10 nM DNA. Particulars: protein: recombinant; tags: His; copies: 1;1;1. Background: In gel filtration, larger molecules generally elute earlier.
T1 sequence (Q8VEE4 190-623, chain 1 of 3): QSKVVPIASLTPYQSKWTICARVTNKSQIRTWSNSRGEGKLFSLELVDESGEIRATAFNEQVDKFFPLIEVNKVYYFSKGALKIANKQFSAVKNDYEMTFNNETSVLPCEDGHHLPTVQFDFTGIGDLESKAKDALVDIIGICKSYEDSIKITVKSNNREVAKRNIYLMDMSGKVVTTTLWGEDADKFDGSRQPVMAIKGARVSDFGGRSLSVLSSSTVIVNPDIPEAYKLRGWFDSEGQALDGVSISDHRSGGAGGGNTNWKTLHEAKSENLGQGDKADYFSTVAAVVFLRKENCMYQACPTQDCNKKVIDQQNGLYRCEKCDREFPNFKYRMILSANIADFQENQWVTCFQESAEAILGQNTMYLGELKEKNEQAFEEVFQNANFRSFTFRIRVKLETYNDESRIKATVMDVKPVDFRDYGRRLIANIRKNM
T1 sequence (chain, as listed by the source, chain 2 of 3): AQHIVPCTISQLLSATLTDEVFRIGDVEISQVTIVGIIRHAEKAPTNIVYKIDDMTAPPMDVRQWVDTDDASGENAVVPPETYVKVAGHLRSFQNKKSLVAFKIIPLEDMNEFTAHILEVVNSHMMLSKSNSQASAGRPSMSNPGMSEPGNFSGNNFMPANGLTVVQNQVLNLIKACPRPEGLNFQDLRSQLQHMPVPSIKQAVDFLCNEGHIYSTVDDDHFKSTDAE
T1 sequence (Q9CQ71 whole entry, chain 3 of 3): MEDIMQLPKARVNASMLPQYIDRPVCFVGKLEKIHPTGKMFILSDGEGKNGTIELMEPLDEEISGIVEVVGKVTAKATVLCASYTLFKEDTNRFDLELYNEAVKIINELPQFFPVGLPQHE

Series [2] concerns the target T2, Tim-Tipin complex;RPA70/32/14 (RPA70ABC/32D-WH/14) (mouse;mouse, UniProt Q9R1X4;Q91WA1;Q8VEE4;Q99KL9;Q9CQ71 1-1134;1-278;190-623;43-270;1-121, |). Nature of the series: SEC; excess DNA; intact complex, 260/280 = 1.20 ± 0.04; 20 mM Hepes pH 7.5, 125 mM NaCl, 2 mM DTT, 0.01 mM zinc acetate (Buffer A); EMSA 15 min RT + 15 min 4 C; FA 15 min 30 C, 10 nM DNA. The note with it: protein: recombinant;recombinant; tags: His (Tim) and His-GST (Tipin), cleaved with 3C;His; copies: 1;1;1;1;1.

In series [3] the target is T3, Tim-Tipin complex (mouse, UniProt Q9R1X4;Q91WA1 1-1134;1-278).
T3 sequence 1: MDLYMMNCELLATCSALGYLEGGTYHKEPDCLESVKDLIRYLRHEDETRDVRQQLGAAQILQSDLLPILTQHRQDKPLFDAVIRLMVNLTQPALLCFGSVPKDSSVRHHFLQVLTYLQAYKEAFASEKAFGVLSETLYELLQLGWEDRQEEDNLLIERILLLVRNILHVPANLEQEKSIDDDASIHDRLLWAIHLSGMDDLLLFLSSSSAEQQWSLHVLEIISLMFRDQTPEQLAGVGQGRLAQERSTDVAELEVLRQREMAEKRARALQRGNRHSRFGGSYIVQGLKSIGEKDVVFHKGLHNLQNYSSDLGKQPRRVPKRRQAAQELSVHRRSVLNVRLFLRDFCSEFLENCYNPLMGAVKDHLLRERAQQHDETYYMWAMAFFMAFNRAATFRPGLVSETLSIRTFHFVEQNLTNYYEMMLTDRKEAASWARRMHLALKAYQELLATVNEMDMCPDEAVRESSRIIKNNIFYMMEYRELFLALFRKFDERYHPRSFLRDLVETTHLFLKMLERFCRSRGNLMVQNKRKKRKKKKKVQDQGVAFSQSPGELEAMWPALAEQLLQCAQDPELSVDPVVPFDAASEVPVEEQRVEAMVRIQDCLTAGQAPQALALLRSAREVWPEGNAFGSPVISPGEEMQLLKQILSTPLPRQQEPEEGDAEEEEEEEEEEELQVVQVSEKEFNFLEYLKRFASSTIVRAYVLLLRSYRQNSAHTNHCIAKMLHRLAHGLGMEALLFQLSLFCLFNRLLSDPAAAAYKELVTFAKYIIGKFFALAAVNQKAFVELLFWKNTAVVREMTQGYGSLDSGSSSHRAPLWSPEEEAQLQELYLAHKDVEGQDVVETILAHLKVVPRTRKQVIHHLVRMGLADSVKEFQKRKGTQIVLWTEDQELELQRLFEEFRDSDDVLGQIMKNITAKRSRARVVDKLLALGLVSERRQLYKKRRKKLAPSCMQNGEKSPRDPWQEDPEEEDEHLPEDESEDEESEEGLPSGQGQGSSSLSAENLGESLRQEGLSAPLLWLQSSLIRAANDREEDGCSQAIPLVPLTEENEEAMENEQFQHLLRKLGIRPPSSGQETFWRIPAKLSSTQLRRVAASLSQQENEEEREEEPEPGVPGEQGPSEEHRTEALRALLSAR
T3 sequence 2: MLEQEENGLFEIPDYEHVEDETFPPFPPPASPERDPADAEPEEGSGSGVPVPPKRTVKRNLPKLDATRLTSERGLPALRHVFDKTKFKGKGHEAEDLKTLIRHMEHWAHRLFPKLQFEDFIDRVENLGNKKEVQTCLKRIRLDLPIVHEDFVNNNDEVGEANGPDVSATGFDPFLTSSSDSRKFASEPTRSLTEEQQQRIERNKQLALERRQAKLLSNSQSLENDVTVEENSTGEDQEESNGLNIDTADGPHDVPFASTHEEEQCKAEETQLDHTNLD
Nature of the series: SEC; excess DNA; partial binding, 260/280 = 0.98 ± 0.14; 20 mM Hepes pH 7.5, 125 mM NaCl, 2 mM DTT, 0.01 mM zinc acetate (Buffer A); EMSA 15 min RT + 15 min 4 C; FA 15 min 30 C, 10 nM DNA. The note with it: protein: recombinant; tags: His (Tim) and His-GST (Tipin), cleaved with 3C; copies: 1;1.

Series [4] deals with T1, RPA70/32/14 (RPA70ABC/32D-WH/14). Nature of the series: EMSA; 1 RPA with excess DNA, up to 4 RPA at substoichiometric DNA; 20 mM Hepes pH 7.5, 125 mM NaCl, 2 mM DTT, 0.01 mM zinc acetate (Buffer A); EMSA 15 min RT + 15 min 4 C; FA 15 min 30 C, 10 nM DNA. The note with it: protein: recombinant; tags: His; copies: 1;1;1; label: 5'-FAM.
Series [5] has as its target T2, Tim-Tipin complex;RPA70/32/14 …. Briefly: EMSA; excess DNA; partial dissociation; 20 mM Hepes pH 7.5, 125 mM NaCl, 2 mM DTT, 0.01 mM zinc acetate (Buffer A); EMSA 15 min RT + 15 min 4 C; FA 15 min 30 C, 10 nM DNA. The note with it: protein: recombinant;recombinant; tags: His (Tim) and His-GST (Tipin), cleaved with 3C;His; copies: 1;1;1;1;1; label: 5'-FAM. Background: A gel shift assay detects complexes by their altered migration in electrophoresis.

Series [6] has as its target T3, Tim-Tipin complex. Briefly: fluorescence anisotropy; Hill n = 2.2 ± 0.1; 30 C; 20 mM Hepes pH 7.5, 125 mM NaCl, 2 mM DTT, 0.01 mM zinc acetate (Buffer A); EMSA 15 min RT + 15 min 4 C; FA 15 min 30 C, 10 nM DNA. The note with it: protein: recombinant; tags: His (Tim) and His-GST (Tipin), cleaved with 3C; copies: 1;1; label: 5'-FAM.
Series [7] addresses T4, Tim interacting protein (Tipin, residues 1-278) (mouse, UniProt Q91WA1 1-278).
T4 construct: The Tipin chain of m1, written alone for the pair Tim with Tipin; also called His-GST-Tipin; source: E. coli BL21 (DE3) gold with pRARE, co-expressed with Tim, co-purified
T4 sequence (looked up): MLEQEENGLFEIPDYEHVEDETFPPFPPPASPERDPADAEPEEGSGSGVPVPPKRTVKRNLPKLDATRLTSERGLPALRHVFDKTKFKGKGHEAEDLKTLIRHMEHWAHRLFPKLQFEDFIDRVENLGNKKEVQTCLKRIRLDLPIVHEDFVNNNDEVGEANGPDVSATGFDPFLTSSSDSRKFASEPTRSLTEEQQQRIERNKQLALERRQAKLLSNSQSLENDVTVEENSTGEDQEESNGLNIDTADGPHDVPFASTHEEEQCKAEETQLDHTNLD
Briefly: SEC; Tim and Tipin co-expressed in E. coli and co-purified (Ni-NTA, Q-sepharose, SEC on Superdex 200 16/60; 20 mM Hepes pH 7.0, 125 mM NaCl, 2 mM DTT); single peak. The note with it: partners not purified.

In series [8] the target is T1, RPA70/32/14 (RPA70ABC/32D-WH/14). Briefly: SEC; DNA-bound RPA released from Tim-Tipin-RPA mixture, 260/280 = 1.27 ± 0.05 and 1.22 ± 0.04; 20 mM Hepes pH 7.5, 125 mM NaCl, 2 mM DTT, 0.01 mM zinc acetate (Buffer A); EMSA 15 min RT + 15 min 4 C; FA 15 min 30 C, 10 nM DNA. Particulars: protein: recombinant; tags: His; copies: 1;1;1.
The target of series [9] is T3, Tim-Tipin complex. Nature of the series: SEC; 260/280 = 0.54, excess or substoichiometric DNA; 20 mM Hepes pH 7.5, 125 mM NaCl, 2 mM DTT, 0.01 mM zinc acetate (Buffer A); EMSA 15 min RT + 15 min 4 C; FA 15 min 30 C, 10 nM DNA. Particulars: protein: recombinant; tags: His (Tim) and His-GST (Tipin), cleaved with 3C; copies: 1;1.
The target of series [10] is T1, RPA70/32/14 (RPA70ABC/32D-WH/14). Briefly: SEC; excess DNA 260/280 = 1.46 ± 0.01; substoichiometric 1.28 ± 0.05; 20 mM Hepes pH 7.5, 125 mM NaCl, 2 mM DTT, 0.01 mM zinc acetate (Buffer A); EMSA 15 min RT + 15 min 4 C; FA 15 min 30 C, 10 nM DNA. The note with it: protein: recombinant; tags: His; copies: 1;1;1.
Series [11] has as its target T2, Tim-Tipin complex;RPA70/32/14 …. Briefly: SEC; excess DNA; intact complex, 260/280 = 1.11 ± 0.04; 20 mM Hepes pH 7.5, 125 mM NaCl, 2 mM DTT, 0.01 mM zinc acetate (Buffer A); EMSA 15 min RT + 15 min 4 C; FA 15 min 30 C, 10 nM DNA. Particulars: protein: recombinant;recombinant; tags: His (Tim) and His-GST (Tipin), cleaved with 3C;His; copies: 1;1;1;1;1.
Series [12] has as its target T1, RPA70/32/14 (RPA70ABC/32D-WH/14). Nature of the series: EMSA; 1 RPA per DNA; 20 mM Hepes pH 7.5, 125 mM NaCl, 2 mM DTT, 0.01 mM zinc acetate (Buffer A); EMSA 15 min RT + 15 min 4 C; FA 15 min 30 C, 10 nM DNA. Particulars: protein: recombinant; tags: His; copies: 1;1;1; label: 5'-FAM.
The target of series [13] is T3, Tim-Tipin complex. Briefly: EMSA; 16 uM protein, 4-64 uM DNA; 20 mM Hepes pH 7.5, 125 mM NaCl, 2 mM DTT, 0.01 mM zinc acetate (Buffer A); EMSA 15 min RT + 15 min 4 C; FA 15 min 30 C, 10 nM DNA. Particulars: protein: recombinant; tags: His (Tim) and His-GST (Tipin), cleaved with 3C; copies: 1;1; label: 5'-FAM.

T2 sequence (Q8VEE4 190-623, chain 3 of 3): as the sequence (Q8VEE4 190-623, chain 1 of 3) above
T2 sequence (chain, as listed by the source |, chain 4 of 3): as the sequence (chain, as listed by the source, chain 2 of 3) above
T2 sequence (Q9CQ71 whole entry, chain 5 of 3): as the sequence (Q9CQ71 whole entry, chain 3 of 3) above

B1: 60 nt ssDNA (SEC) (ssDNA)
DNA: CAGACCGCCACCGACTGCTTAGATATTTAAGTTTTCTAATTTTTCATTGAAAGCATTAAG
Regarding B1, the binding result (in [1]; in [2]; with Tim-Tipin complex [3]) was “binds” throughout.

B2: 60 nt FAM ssDNA (ssDNA)
DNA: ACGCTGCCGAATTCTACCAGTGCCTTGCTAGGACATCTTTGCCCACCTGCAGGTTCACCC
As for B2, the binding result in series [4] and in [5] was “binds” each time. Moreover, in the series with Tim-Tipin complex [6], the Kd (in general, the equilibrium constant for the complex coming apart) came to 290 ± 10 nM.

B3: Timeless (Tim, residues 1-1134) (domain or fragment, mouse, UniProt Q9R1X4 1-1134, looked up)
chain: MDLYMMNCELLATCSALGYLEGGTYHKEPDCLESVKDLIRYLRHEDETRDVRQQLGAAQILQSDLLPILTQHRQDKPLFDAVIRLMVNLTQPALLCFGSVPKDSSVRHHFLQVLTYLQAYKEAFASEKAFGVLSETLYELLQLGWEDRQEEDNLLIERILLLVRNILHVPANLEQEKSIDDDASIHDRLLWAIHLSGMDDLLLFLSSSSAEQQWSLHVLEIISLMFRDQTPEQLAGVGQGRLAQERSTDVAELEVLRQREMAEKRARALQRGNRHSRFGGSYIVQGLKSIGEKDVVFHKGLHNLQNYSSDLGKQPRRVPKRRQAAQELSVHRRSVLNVRLFLRDFCSEFLENCYNPLMGAVKDHLLRERAQQHDETYYMWAMAFFMAFNRAATFRPGLVSETLSIRTFHFVEQNLTNYYEMMLTDRKEAASWARRMHLALKAYQELLATVNEMDMCPDEAVRESSRIIKNNIFYMMEYRELFLALFRKFDERYHPRSFLRDLVETTHLFLKMLERFCRSRGNLMVQNKRKKRKKKKKVQDQGVAFSQSPGELEAMWPALAEQLLQCAQDPELSVDPVVPFDAASEVPVEEQRVEAMVRIQDCLTAGQAPQALALLRSAREVWPEGNAFGSPVISPGEEMQLLKQILSTPLPRQQEPEEGDAEEEEEEEEEEELQVVQVSEKEFNFLEYLKRFASSTIVRAYVLLLRSYRQNSAHTNHCIAKMLHRLAHGLGMEALLFQLSLFCLFNRLLSDPAAAAYKELVTFAKYIIGKFFALAAVNQKAFVELLFWKNTAVVREMTQGYGSLDSGSSSHRAPLWSPEEEAQLQELYLAHKDVEGQDVVETILAHLKVVPRTRKQVIHHLVRMGLADSVKEFQKRKGTQIVLWTEDQELELQRLFEEFRDSDDVLGQIMKNITAKRSRARVVDKLLALGLVSERRQLYKKRRKKLAPSCMQNGEKSPRDPWQEDPEEEDEHLPEDESEDEESEEGLPSGQGQGSSSLSAENLGESLRQEGLSAPLLWLQSSLIRAANDREEDGCSQAIPLVPLTEENEEAMENEQFQHLLRKLGIRPPSSGQETFWRIPAKLSSTQLRRVAASLSQQENEEEREEEPEPGVPGEQGPSEEHRTEALRALLSAR
notes: Timeless (Tim), mouse, AB019001, aa 1-1134; The Tim chain of m1, written alone for the pair Tim with Tipin; also called mTim; His-Tim; source: E. coli BL21 (DE3) gold with pRARE, co-expressed with Tipin, co-purified
B3: the stoichiometry N (as a rule, the number of molecules, sites or subunits per partner or assembly) in series [7] amounted to 1.

B4: 14 nt ssDNA (SEC) (ssDNA)
DNA: AGAAGAGCCAAAAC
With B4, the binding result in [8] is “binds”; with Tim-Tipin complex [9] it was “no binding”.

B5: 31 nt ssDNA (SEC) (ssDNA)
DNA: CGGGATCCCAGCCAGCGATGTCTCAAGCTGC
For B5, the binding result in series [10] and in [11] was “binds” in each case.

B6: 14 nt FAM ssDNA (ssDNA)
DNA: GACGGCATCCCTAA
As for B6, the binding result in [12] was “binds”; with Tim-Tipin complex [13] it was “no binding”.
